Experimental data from the Immune Epitope Database (IEDB).
Blank lines part the entries; values can stand above or below the sequence they belong to.

What was measured:
[1] = molecular target: HLA-B*08:01; assay: IEDB peptide-MHC binding, purified MHC/direct/fluorescence; filed as Kd, often an IC50 or EC50 that approximates it; ≥ and ≤ were set here for values at or beyond the usual limits of such assays
[2] = molecular target: HLA-B*35:01; assay: as above
[3] = molecular target: HLA-B*58:01; assay: as above
[4] = molecular target: HLA-A*69:01; assay: as above
[5] = molecular target: HLA-B*07:02; assay: as above
[6] = molecular target: HLA-B*44:02; assay: as above
[7] = molecular target: HLA-A*01:01; assay: as above
[8] = molecular target: HLA-A*11:01; assay: as above
[9] = molecular target: HLA-A*26:01; assay: as above
[10] = molecular target: HLA-A*02:01; assay: as above
[11] = molecular target: HLA-A*31:01; assay: as above
[12] = molecular target: HLA-B*40:01; assay: as above
[13] = molecular target: HLA-A*03:01; assay: as above
[14] = molecular target: HLA-B*15:01; assay: as above
[15] = molecular target: HLA-B*27:05; assay: as above
[16] = molecular target: HLA-A*02:16; assay: as above; settings: source organism: Vibrio vulnificus CMCP6
[17] = molecular target: HLA-C*05:01; assay: as above
[18] = molecular target: HLA-A*02:12; assay: as above; settings: source organism: Vibrio vulnificus CMCP6
[19] = molecular target: HLA-A*02:50; assay: IEDB peptide-MHC binding, purified MHC/competitive/fluorescence; filed as Kd, often an IC50 or EC50 that approximates it; ≥ and ≤ were set here for values at or beyond the usual limits of such assays
[20] = molecular target: HLA-B*08:01; assay: as above
[21] = molecular target: HLA-B*57:01; assay: as above; settings: source organism: Salmonella enterica subsp. enterica serovar Typhi
[22] = molecular target: HLA-B*18:01; assay: as above; settings: source organism: Salmonella enterica subsp. enterica serovar Typhi
[23] = molecular target: HLA-B*51:01; assay: as above; settings: source organism: Salmonella enterica subsp. enterica serovar Typhi
[24] = molecular target: HLA-B*39:01; assay: as above; settings: source organism: Salmonella enterica subsp. enterica serovar Typhi
[25] = molecular target: HLA-A*69:01; assay: as above; settings: source organism: Salmonella enterica subsp. enterica serovar Typhi
[26] = molecular target: HLA-B*46:01; assay: as above; settings: source organism: Salmonella enterica subsp. enterica serovar Typhi
[27] = molecular target: HLA-A*02:19; assay: as above; settings: source organism: Salmonella enterica subsp. enterica serovar Typhi
[28] = molecular target: HLA-A*02:11; assay: as above; settings: source organism: Salmonella enterica subsp. enterica serovar Typhi
[29] = molecular target: HLA-A*02:16; assay: as above
[30] = molecular target: HLA-B*27:03; assay: as above; settings: source organism: Salmonella enterica subsp. enterica serovar Typhi
[31] = molecular target: HLA-A*26:01; assay: as above; settings: source organism: Salmonella enterica subsp. enterica serovar Typhi
[32] = molecular target: HLA-A*02:03; assay: as above; settings: source organism: Salmonella enterica subsp. enterica serovar Typhi
[33] = molecular target: HLA-A*68:02; assay: as above; settings: source organism: Salmonella enterica subsp. enterica serovar Typhi
[34] = molecular target: HLA-A*02:01; assay: as above
[35] = molecular target: HLA-A*02:12; assay: as above; settings: source organism: Salmonella enterica subsp. enterica serovar Typhi
[36] = molecular target: HLA-A*03:01; assay: as above; settings: source organism: Salmonella enterica subsp. enterica serovar Typhi
[37] = molecular target: HLA-B*15:01; assay: as above
[38] = molecular target: HLA-A*30:01; assay: IEDB peptide-MHC binding, purified MHC/direct/fluorescence; filed as Kd, often an IC50 or EC50 that approximates it; ≥ and ≤ were set here for values at or beyond the usual limits of such assays
[39] = molecular target: HLA-A*24:03; assay: as above
[40] = molecular target: HLA-C*03:03; assay: as above; settings: source organism: Escherichia coli O139:H28 str. E24377A
[41] = molecular target: HLA-B*35:01; assay: IEDB peptide-MHC binding, purified MHC/competitive/fluorescence; filed as Kd, often an IC50 or EC50 that approximates it; ≥ and ≤ were set here for values at or beyond the usual limits of such assays; settings: source organism: Escherichia coli O139:H28 str. E24377A
[42] = molecular target: HLA-B*58:01; assay: as above; settings: source organism: Escherichia coli O139:H28 str. E24377A
[43] = source organism: Coxiella burnetii
[44] = source organism: Vibrio vulnificus
[45] = source organism: Vibrio vulnificus YJ016
[46] = source organism: Escherichia coli O139:H28 str. E24377A
[47] = source organism: Salmonella enterica subsp. enterica serovar Typhi
[48] = source organism: Francisella tularensis subsp. holarctica OSU18
[49] = source organism: Serratia marcescens
[50] = source organism: Vibrio cholerae

Sequence: SYGNANVSF
Kd [1, 43]: ≥ 20 µM
Kd [2, 43]: 0.264 µM
Kd [3, 43]: ≥ 20 µM
Kd [4, 43]: ≥ 20 µM
Kd [5, 43]: ≥ 20 µM
Kd [6, 43]: ≥ 20 µM
Kd [7, 43]: 1.81 µM
Kd [8, 43]: ≥ 5 µM
Kd [9, 43]: ≥ 20 µM
Kd [10, 43]: ≥ 20 µM
Kd [11, 43]: ≥ 20 µM
Kd [12, 43]: ≥ 20 µM
Kd [13, 43]: ≥ 20 µM
Kd [14, 43]: 1.14 µM
Kd [15, 43]: ≥ 20 µM

Sequence: MSDWGHITV
Kd [4, 44]: ≤ 0.001 µM
Kd [16]: 0.029 µM
Kd [10, 44]: 0.276 µM
Kd [17, 45]: ≤ 0.001 µM
Kd [18]: 0.056 µM
Kd [19, 45]: 0.0098 µM

Kd [20, 46]: 4.02 µM
Sequence: DLLKPNYAL

Sequence: KTVRYWHRF
Kd [21]: 0.0403 µM
Kd [22]: ≥ 20 µM
Kd [23]: ≥ 20 µM
Kd [24]: ≥ 20 µM
Kd [25]: ≥ 20 µM
Kd [26]: ≥ 20 µM
Kd [27]: ≥ 20 µM
Kd [28]: ≥ 20 µM
Kd [29, 47]: ≥ 20 µM
Kd [30]: ≥ 20 µM
Kd [31]: ≥ 20 µM
Kd [32]: ≥ 20 µM
Kd [33]: ≥ 20 µM
Kd [34, 47]: ≥ 20 µM
Kd [35]: ≥ 20 µM
Kd [36]: ≥ 20 µM
Kd [37, 47]: ≥ 20 µM

Sequence: FGLLPEHYV
Kd [29, 48]: 0.0601 µM
Kd [34, 48]: 0.12 µM

Kd [1, 49]: ≥ 20 µM
Kd [3, 49]: ≥ 20 µM
Kd [4, 49]: ≥ 20 µM
Kd [5, 49]: ≥ 20 µM
Kd [7, 49]: ≥ 20 µM
Kd [9, 49]: ≥ 20 µM
Kd [10, 49]: ≥ 20 µM
Kd [11, 49]: ≥ 20 µM
Kd [12, 49]: ≥ 20 µM
Kd [13, 49]: ≥ 20 µM
Kd [14, 49]: ≥ 20 µM
Kd [15, 49]: ≥ 20 µM
Kd [19, 49]: 0.0017 µM
Sequence: LIPDGDGEV

Sequence: VNGVKGIQF
Kd [1, 44]: ≥ 20 µM
Kd [2, 44]: 1 µM
Kd [3, 44]: ≥ 20 µM
Kd [38, 44]: ≥ 20 µM
Kd [4, 44]: ≥ 20 µM
Kd [6, 44]: ≥ 20 µM
Kd [7, 44]: ≥ 20 µM
Kd [8, 44]: ≥ 20 µM
Kd [9, 44]: ≥ 20 µM
Kd [39, 44]: ≥ 20 µM
Kd [10, 44]: ≥ 20 µM
Kd [11, 44]: ≥ 20 µM
Kd [12, 44]: ≥ 20 µM
Kd [13, 44]: ≥ 20 µM
Kd [14, 44]: ≥ 20 µM
Kd [15, 44]: ≥ 20 µM

Sequence: EIFPNIKIY
Kd [1, 50]: ≥ 20 µM
Kd [2, 50]: 0.164 µM
Kd [3, 50]: ≥ 20 µM
Kd [4, 50]: ≥ 20 µM
Kd [5, 50]: ≥ 20 µM
Kd [6, 50]: ≥ 20 µM
Kd [7, 50]: ≥ 20 µM
Kd [8, 50]: ≥ 20 µM
Kd [9, 50]: 0.0738 µM
Kd [10, 50]: ≥ 20 µM
Kd [11, 50]: ≥ 20 µM
Kd [12, 50]: ≥ 20 µM
Kd [13, 50]: ≥ 20 µM
Kd [14, 50]: 0.465 µM
Kd [15, 50]: ≥ 20 µM

Kd [40]: ≤ 0.001 µM
Kd [17, 46]: 2.65 µM
Kd [20, 46]: 3.72 µM
Kd [41]: ≤ 0.0001 µM
Kd [42]: 0.0045 µM
Kd [37, 46]: 0.0413 µM
Sequence: YALATQVEF

Sequence: FPRSAERAG
Kd [1, 50]: ≥ 20 µM
Kd [2, 50]: 0.0434 µM
Kd [3, 50]: ≥ 20 µM
Kd [38, 50]: ≥ 10 µM
Kd [4, 50]: ≥ 20 µM
Kd [5, 50]: 0.201 µM
Kd [6, 50]: ≥ 20 µM
Kd [7, 50]: ≥ 20 µM
Kd [8, 50]: ≥ 20 µM
Kd [9, 50]: ≥ 20 µM
Kd [39, 50]: ≥ 20 µM
Kd [10, 50]: ≥ 20 µM
Kd [11, 50]: ≥ 20 µM
Kd [12, 50]: ≥ 20 µM
Kd [13, 50]: ≥ 20 µM
Kd [14, 50]: ≥ 20 µM
Kd [15, 50]: ≥ 20 µM

Sequence: QLKYKYPAL
Kd ([20]; source organism: Influenza A virus (A/Tokyo/1566/98(H3N2))): 0.0679 µM
